Results: US20100136005A1

Columns and labels:
[1] = biological target: rhesus CD18 (rhesus) (UniProt H9Z8N5); assay: cell-based or functional assay
[2] = biological target: human CD18 (human) (UniProt P05107); assay: cell-based or functional assay
Sequence of human CD18 (human) (P05107 23-769): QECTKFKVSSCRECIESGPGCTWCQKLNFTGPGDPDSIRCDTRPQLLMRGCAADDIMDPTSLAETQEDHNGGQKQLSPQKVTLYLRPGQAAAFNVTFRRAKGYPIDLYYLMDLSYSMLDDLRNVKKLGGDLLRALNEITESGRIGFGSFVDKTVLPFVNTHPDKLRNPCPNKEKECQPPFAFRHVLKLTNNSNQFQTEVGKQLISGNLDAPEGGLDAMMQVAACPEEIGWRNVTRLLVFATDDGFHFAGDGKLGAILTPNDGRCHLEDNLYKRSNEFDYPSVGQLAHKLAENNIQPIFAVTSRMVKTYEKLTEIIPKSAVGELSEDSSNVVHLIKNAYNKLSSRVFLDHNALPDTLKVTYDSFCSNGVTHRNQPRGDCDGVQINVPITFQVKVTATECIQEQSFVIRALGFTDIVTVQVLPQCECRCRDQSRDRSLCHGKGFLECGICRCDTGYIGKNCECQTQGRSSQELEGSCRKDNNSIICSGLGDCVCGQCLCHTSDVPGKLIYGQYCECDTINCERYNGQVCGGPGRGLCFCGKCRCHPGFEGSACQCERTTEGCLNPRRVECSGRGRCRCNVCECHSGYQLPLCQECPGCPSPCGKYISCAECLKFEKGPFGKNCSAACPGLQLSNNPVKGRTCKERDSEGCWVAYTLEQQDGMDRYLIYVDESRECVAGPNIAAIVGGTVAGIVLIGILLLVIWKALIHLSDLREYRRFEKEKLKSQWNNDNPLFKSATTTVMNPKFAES

## murine anti-human CD18 antibody MHM23
[1]
  IC50 Value (nM), RhLy:HuICAM cell adhesion: 1.2 nM
  IC50 Value (nM), RhLy:HuK cell adhesion: 1.6 nM
  IC50 Value (nM), rhesus mixed lymphocyte response: 30.4 nM
[2]
  IC50 Value (nM), Rh/HuCD11a:HuK cell adhesion: 1.4 nM
